Data reported in PMC8417825, “Light-Induced Dynamic Change of Phytochrome B and Cryptochrome 1 Stabilizes SINATs in Arabidopsis” (Frontiers in Plant Science, 2021).

T1: phyB-N-GST (Arabidopsis thaliana, UniProt P14713 1-645)
T1 construct: phytochrome B (phyB), Arabidopsis thaliana, N-terminus, amino acids 1-645; also called N-terminus of phytochrome B; source: E. coli, purified (glutathione resin)
T1 sequence (looked up): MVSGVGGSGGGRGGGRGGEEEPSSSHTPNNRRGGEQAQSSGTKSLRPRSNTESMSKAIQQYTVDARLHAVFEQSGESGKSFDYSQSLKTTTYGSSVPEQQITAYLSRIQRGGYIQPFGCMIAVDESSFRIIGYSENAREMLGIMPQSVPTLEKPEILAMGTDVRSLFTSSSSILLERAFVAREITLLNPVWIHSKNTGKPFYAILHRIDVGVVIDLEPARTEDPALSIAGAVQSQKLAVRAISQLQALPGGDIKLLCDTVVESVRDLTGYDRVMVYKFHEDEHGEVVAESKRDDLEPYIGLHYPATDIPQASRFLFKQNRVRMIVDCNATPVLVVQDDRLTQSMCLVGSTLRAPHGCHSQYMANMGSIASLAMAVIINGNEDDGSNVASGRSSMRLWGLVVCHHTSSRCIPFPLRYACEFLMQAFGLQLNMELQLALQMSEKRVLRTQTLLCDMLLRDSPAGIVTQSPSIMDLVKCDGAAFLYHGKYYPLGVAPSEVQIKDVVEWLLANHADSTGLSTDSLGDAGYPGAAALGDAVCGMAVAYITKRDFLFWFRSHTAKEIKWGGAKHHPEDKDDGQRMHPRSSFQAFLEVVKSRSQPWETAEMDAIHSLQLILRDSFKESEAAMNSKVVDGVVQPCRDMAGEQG

T2: phyB-C-GST (Arabidopsis thaliana, UniProt P14713 646-1172)
T2 construct: phytochrome B (phyB), Arabidopsis thaliana, C-terminus, amino acids 646-1,172; Cloned into pGEX-4T-1; also called C-terminus of phytochrome B; source: E. coli BL21 (DE3) pLysS, purified (glutathione resin)
T2 sequence (looked up): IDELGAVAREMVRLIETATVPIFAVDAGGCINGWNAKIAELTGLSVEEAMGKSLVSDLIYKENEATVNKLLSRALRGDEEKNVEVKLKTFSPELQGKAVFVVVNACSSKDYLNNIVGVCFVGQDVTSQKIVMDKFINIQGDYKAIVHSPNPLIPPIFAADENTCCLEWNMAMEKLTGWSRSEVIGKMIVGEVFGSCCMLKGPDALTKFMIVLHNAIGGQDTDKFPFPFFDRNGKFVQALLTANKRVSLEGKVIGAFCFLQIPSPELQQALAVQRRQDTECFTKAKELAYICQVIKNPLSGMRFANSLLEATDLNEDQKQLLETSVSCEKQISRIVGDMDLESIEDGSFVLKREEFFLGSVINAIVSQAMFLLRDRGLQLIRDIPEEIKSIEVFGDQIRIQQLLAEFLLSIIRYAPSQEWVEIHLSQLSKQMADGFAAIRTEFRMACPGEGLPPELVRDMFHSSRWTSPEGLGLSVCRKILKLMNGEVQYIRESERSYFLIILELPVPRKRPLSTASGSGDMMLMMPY

B1: CRY1-C-GST (domain or fragment, Arabidopsis thaliana, UniProt Q43125 491-681, looked up)
chain: MWQLEAASRAAIENGSEEGLGDSAEVEEAPIEFPRDITMEETEPTRLNPNRRYEDQMVPSITSSLIRPEEDEESSLNLRNSVGDSRAEVPRNMVNTNQAQQRRAEPASNQVTAMIPEFNIRIVAESTEDSTAESSSSGRRERSGGIVPEWSPGYSEQFPSEENGIGGGSTTSSYLQNHHEILNWRRLSQTG
notes: cryptochrome 1 (CRY1), Arabidopsis thaliana, C-terminus, amino acids 491-681; Cloned into pGEX-4T-1; also called C-terminus of cryptochrome 1; source: E. coli BL21 (DE3) pLysS, purified (glutathione resin)
B2: SINAT2-His (natural protein, Arabidopsis thaliana, UniProt Q9M2P4 1-308, looked up)
chain: MAPGGSALKEVMESNSTGMDYEVKTAKVEVNNNKPTKPGSAGIGKYGIHSNNGVYELLECPVCTNLMYPPIHQCPNGHTLCSNCKLRVQNTCPTCRYELGNIRCLALEKVAESLEVPCRYQNLGCHDIFPYYSKLKHEQHCRFRPYTCPYAGSECSVTGDIPTLVVHLKDDHKVDMHDGCTFNHRYVKSNPHEVENATWMLTVFNCFGRQFCLHFEAFQLGMAPVYMAFLRFMGDENEAKKFSYSLEVGAHGRKLTWQGIPRSIRDSHRKVRDSQDGLIIPRNLALYFSGGDRQELKLRVTGRIWKEE
notes: SINAT2 (SINA of Arabidopsis thaliana 2), At3g58040; Printed both as SINAT2-His (pull-down) and His-SINAT2 (ubiquitination assay); also called His-SINAT2

Legend:
Experiment in all cases: pull-down; in vitro pull-down: about 5 ug GST-tagged protein on glutathione resin, about 2 ug His-tagged protein added, 1 h at 4°C; washed with 1x PBS, 0.1% Triton X-100; anti-His blot
Settings in all cases: both partners purified
SINAT2-His = target: B2
CRY1-N-GST = target: T3, CRY1-N-GST (Arabidopsis thaliana, UniProt Q43125 1-490)
T3 construct: cryptochrome 1 (CRY1), Arabidopsis thaliana, N-terminus, amino acids 1-490; Cloned into pGEX-4T-1; also called N-terminus of cryptochrome 1; source: E. coli BL21 (DE3) pLysS, purified (glutathione resin)

phyB-N-GST = target: T1, phyB-N-GST
phyB-C-GST = target: T2, phyB-C-GST

T3 sequence (Q43125 1-490): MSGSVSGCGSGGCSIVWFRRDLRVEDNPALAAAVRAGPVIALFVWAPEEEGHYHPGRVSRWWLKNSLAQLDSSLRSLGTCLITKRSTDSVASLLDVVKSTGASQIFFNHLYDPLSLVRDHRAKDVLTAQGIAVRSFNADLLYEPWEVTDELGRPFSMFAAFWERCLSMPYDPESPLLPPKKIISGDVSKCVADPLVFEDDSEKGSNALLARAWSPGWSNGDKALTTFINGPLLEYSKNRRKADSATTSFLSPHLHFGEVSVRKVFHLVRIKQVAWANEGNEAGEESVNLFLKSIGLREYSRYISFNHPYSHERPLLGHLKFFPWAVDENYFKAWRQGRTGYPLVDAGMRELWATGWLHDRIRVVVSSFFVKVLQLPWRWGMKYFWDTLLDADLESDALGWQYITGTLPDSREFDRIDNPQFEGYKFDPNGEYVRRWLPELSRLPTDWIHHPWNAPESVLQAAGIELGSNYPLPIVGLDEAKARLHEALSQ

| binding result (SINAT2-His) | binding result (CRY1-N-GST) | binding result (phyB-N-GST) | binding result (phyB-C-GST) | Binder |
| --- | --- | --- | --- | --- |
| binds |  |  |  | B1 |
|  | binds | binds | binds | B2 |
